# Reference: publication PMC4701059 (Molecular microbiology, 2015)
# Positions count from the first letter of the chain named.
# T1: ComA;Rap60 (Bacillus subtilis (genomic DNA; strain …, UniProt P14204;Q45456 2-214;2-375, |)
# T1 sequence 1: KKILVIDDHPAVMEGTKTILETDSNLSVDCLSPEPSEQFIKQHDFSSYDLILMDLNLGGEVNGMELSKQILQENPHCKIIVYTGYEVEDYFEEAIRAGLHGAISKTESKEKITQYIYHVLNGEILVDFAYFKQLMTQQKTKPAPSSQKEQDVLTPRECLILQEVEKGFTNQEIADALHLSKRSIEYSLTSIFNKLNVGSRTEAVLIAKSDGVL
# T1 sequence 2: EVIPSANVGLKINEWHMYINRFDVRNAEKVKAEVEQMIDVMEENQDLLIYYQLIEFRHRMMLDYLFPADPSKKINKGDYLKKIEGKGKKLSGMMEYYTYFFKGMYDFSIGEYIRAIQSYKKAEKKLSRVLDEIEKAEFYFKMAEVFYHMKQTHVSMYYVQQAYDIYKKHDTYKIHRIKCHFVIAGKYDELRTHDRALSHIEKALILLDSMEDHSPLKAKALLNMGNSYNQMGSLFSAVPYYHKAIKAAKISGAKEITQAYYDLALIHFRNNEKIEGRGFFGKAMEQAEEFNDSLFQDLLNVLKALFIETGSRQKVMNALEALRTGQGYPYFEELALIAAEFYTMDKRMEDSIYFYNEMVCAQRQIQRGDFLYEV
# T2: ComA;Rap60(R26A) (Bacillus subtilis (genomic DNA; strain …, UniProt P14204;Q45456 2-214;2-375, |R26A)
# T2 sequence 1: T1 sequence 1
# T2 sequence 2: T1 sequence 2 with R25A
# T3: ComA;Rap60(R26P) (Bacillus subtilis (genomic DNA; strain …, UniProt P14204;Q45456 2-214;2-375, |R26P)
# T3 sequence 1: T1 sequence 1
# T3 sequence 2: T1 sequence 2 with R25P
# T4: ComA (Bacillus subtilis (genomic DNA; strain …, UniProt P14204 2-214)
# T4 sequence: T1 sequence 1
# T5: Rap60 (Bacillus subtilis plasmid pTA1060, UniProt Q45456 2-375)
# T5 sequence: T1 sequence 2
# T6: ComA;Rap60(N27A) (Bacillus subtilis (genomic DNA; strain …, UniProt P14204;Q45456 2-214;2-375, |N27A)
# T6 sequence 1: T1 sequence 1
# T6 sequence 2: T1 sequence 2 with N26A
# B1: minimal consensus ComA binding site (dsDNA)
# DNA 1: TCATTGCGGCATCCCGCAAGAAACTTTGCGGTC
# DNA 2: GACCGCAAAGTTTCTTGCGGGATGCCGCAATGA
# How the values were obtained:
# ComP(CD) (his6-ComP(CD)) = ComP(CD) (his6-ComP(CD)) (Bacillus subtilis, UniProt Q99027); test: autophosphorylation with γ-32P-ATP, SDS-PAGE, phosphorimaging; format: biochemical; settings: 0.5 mM ATP; 20 mM MgCl2, pH 8-8.5, 24°C; labelled compound
# ComA;Rap60 = molecular target: T1, ComA;Rap60; test: EMSA
# ComA;Rap60(R26A) = molecular target: T2, ComA;Rap60(R26A); test: EMSA
# ComA;Rap60(R26P) = molecular target: T3, ComA;Rap60(R26P); test: EMSA
# ComA = molecular target: T4, ComA; test: EMSA
# Rap60 = molecular target: T5, Rap60; test: EMSA
# ComA;Rap60(N27A) = molecular target: T6, ComA;Rap60(N27A); test: EMSA
# Sequence of ComP(CD) (his6-ComP(CD)) (Q99027 384-769): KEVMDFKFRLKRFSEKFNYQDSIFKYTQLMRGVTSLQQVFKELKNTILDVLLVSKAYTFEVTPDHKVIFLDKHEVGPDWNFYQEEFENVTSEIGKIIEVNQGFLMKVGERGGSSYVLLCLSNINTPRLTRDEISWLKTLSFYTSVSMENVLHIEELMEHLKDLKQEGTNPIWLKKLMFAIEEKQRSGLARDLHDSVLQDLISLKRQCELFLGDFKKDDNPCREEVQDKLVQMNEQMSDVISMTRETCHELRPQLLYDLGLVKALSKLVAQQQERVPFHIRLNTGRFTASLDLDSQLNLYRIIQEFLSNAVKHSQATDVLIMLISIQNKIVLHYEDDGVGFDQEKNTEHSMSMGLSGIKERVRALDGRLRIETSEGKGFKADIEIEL
Molecule,"autophosphorylation with γ-32P-ATP, SDS-PAGE, phosphorimaging (ComP(CD) (his6-ComP(CD)))",binding result (ComA;Rap60),binding result (ComA;Rap60(R26A)),binding result (ComA;Rap60(R26P)),binding result (ComA),binding result (Rap60),binding result (ComA;Rap60(N27A))
Nc1ncnc2c1ncn2[C@@H]1O[C@H](COP(=O)(O)OP(=O)(O)OP(=O)(O)O)[C@@H](O)[C@H]1O [ATP],"ComP autophosphorylation, ComP~P dephosphorylation, phosphotransfer from ComP to ComA",–,–,–,–,–,–
B1,–,binds,binds,binds,binds,no binding,binds
